Measurements: US20030109431A1
Each block holds one molecule with its values, some of them ahead of it. Where no end group is shown, it is not given here. The star is where a group is joined. Biotin = O=C1N[C@H]2[C@H](CS[C@H]2CCCCC(=O)*)N1

Experiments:
[1] = molecular target: ICAM-1 (Intercellular Adhesion Molecule-1) (human) (UniProt P05362); test: cell-based or functional assay
[2] = molecular target: specific cell surface receptor of synovial cells (unidentified), on human RA synovial fibroblasts (human); test: flow cytometry competition on synovial cells, unlabeled Fgn 2.5 mg for 3 h then labeled SAC[KBtn] 1 h; signal is of bound SAC[KBtn]
[3] = molecular target: specific cell surface receptor of synovial cells (unidentified), on human RA synovial fibroblasts (human); test: flow cytometry competition on synovial cells, unlabeled GPRP 2.5 mg for 3 h then labeled SAC[KBtn] 1 h; signal is of bound SAC[KBtn]
[4] = molecular target: specific cell surface receptor of synovial cells (unidentified), on human RA synovial fibroblasts (human); test: flow cytometry on RA #16 synovial fibroblasts, 100 ug control peptide, avidin-FITC detection (avidin-FITC alone 13.71)
[5] = molecular target: specific cell surface receptor of synovial cells (unidentified), on human RA synovial fibroblasts (human); test: flow cytometry on RA #16 synovial fibroblasts, 100 ug control peptide, avidin-FITC detection (avidin-FITC alone 3.6 %)
[6] = molecular target: specific cell surface receptor of synovial cells (unidentified), on human RA synovial fibroblasts (human); test: flow cytometry competition on synovial cells, unlabeled SAC 2.5 mg for 3 h then labeled SAC[KBtn] 1 h; signal is of bound SAC[KBtn]
[7] = molecular target: specific cell surface receptor of synovial cells (unidentified), on human RA synovial fibroblasts (human); test: flow cytometry on RA #16 synovial fibroblasts, 200 ug peptide, avidin-FITC detection (avidin-FITC alone 13.71)
[8] = molecular target: specific cell surface receptor of synovial cells (unidentified), on human RA synovial fibroblasts (human); test: flow cytometry on RA #16 synovial fibroblasts, 100 ug peptide, avidin-FITC detection (avidin-FITC alone 3.6 %)
[9] = molecular target: specific cell surface receptor of synovial cells (unidentified), on human RA synovial fibroblasts (human); test: flow cytometry on RA #16 synovial fibroblasts, 100 ug peptide, avidin-FITC detection (avidin-FITC alone 13.71)
[10] = molecular target: specific cell surface receptor of synovial cells (unidentified), on human RA synovial fibroblasts (human); test: flow cytometry on synovial cells, SAC[KBtn] 1 h without competitor, avidin-FITC detection (avidin-FITC alone 20.16)
[11] = molecular target: specific cell surface receptor of synovial cells (unidentified), on human RA synovial fibroblasts (human); test: flow cytometry on RA #16 synovial fibroblasts, 200 ug peptide, avidin-FITC detection (avidin-FITC alone 3.6 %)

ICAM-1 (Intercellular Adhesion Molecule-1) (human), sequence (P05362 28-532): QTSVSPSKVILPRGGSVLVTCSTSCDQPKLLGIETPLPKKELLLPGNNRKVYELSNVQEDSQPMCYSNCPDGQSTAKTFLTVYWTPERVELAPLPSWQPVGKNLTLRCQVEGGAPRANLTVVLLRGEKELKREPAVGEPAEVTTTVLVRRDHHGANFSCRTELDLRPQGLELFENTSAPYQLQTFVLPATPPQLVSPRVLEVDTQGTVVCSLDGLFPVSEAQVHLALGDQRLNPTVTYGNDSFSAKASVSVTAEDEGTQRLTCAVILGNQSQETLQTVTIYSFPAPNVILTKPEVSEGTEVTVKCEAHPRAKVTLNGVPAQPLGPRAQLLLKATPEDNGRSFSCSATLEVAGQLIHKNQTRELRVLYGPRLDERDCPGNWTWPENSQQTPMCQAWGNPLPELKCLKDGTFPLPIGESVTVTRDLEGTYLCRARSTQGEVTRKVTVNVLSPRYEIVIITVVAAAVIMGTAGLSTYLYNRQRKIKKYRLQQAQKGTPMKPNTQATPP

- Mean [2]: 21.6
Molecule: unlabeled fibrinogen (from UniProt P02671 20-629; P02675 31-491; P02679 27-437)

- Mean [3]: 33.6
B1: synthetic tetrapeptide Gly-Pro-Arg-Pro (peptide)
peptide: H-GPRP-OH

- Mean Fluorescent Channel [4]: 20.4
- % Cells Positive [5]: 10.6%
B2: biotinylated control peptide …[KBtn] derived from the B/beta chain of fibrinogen following removal of Fibrinopeptide B (peptide)
peptide: GHRPLDKKREEK(Biotin)

- Mean Fluorescent Channel [7]: 125
- % Cells Positive [8]: 86.3%
- Mean Fluorescent Channel [9]: 258
- Mean [10]: 51.2
- % Cells Positive [11]: 80%
B4: biotinylated amino acid sequence 17-28 of human fibrinogen Aα chain, …[KBtn] (peptide)
peptide: GPRVVERHQSACK(Biotin)

Further lines, the molecule ahead of its results:

Molecule: T-cell LFA-1 (from UniProt P20701 26-1170; P05107 23-769) (receptor)
- adherent T cell numbers, Foreskin line, GPRP 0.1 mg/ml [1]: 51 T cells
- adherent T cell numbers, Foreskin line, GPRP 1 mg/ml [1]: 54 T cells
- adherent T cell numbers, Foreskin line, IL-1 beta 1 ng/ml [1]: 94 T cells
- adherent T cell numbers, Foreskin line, control [1]: 47 T cells
- adherent T cell numbers, OA line 15, GPRP 0.1 mg/ml [1]: 92 T cells
- adherent T cell numbers, OA line 15, GPRP 1 mg/ml [1]: 113 T cells
- adherent T cell numbers, OA line 15, IL-1 beta 1 ng/ml [1]: 66 T cells
- adherent T cell numbers, OA line 15, control [1]: 35 T cells
- adherent T cell numbers, RA line 7, GPRP 0.1 mg/ml [1]: 184 T cells
- adherent T cell numbers, RA line 7, GPRP 1 mg/ml [1]: 153 T cells
- adherent T cell numbers, RA line 7, IL-1 beta 1 ng/ml [1]: 116 T cells
- adherent T cell numbers, RA line 7, control [1]: 80 T cells
- adherent T cell numbers, RA line 8, GPRP 0.1 mg/ml [1]: 99 T cells
- adherent T cell numbers, RA line 8, GPRP 1 mg/ml [1]: 97 T cells
- adherent T cell numbers, RA line 8, IL-1 beta 1 ng/ml [1]: 58 T cells
- adherent T cell numbers, RA line 8, control [1]: 29 T cells

B3: unlabeled … (peptide)
peptide: GPRVVERHQSAC
- Mean [6]: 36.3
